Several values for one entry are separate records, joined by “and”; a condition that tells them apart may be missing. Identical values can stand only once.
Settings: Myxococcus xanthus, Thermal, DSC, reversible: yes, whole UniProt chain shown
[1] = pH 3, glycine-HCl 20 mM, CaCl2 3 mM
[2] = pH 6, Sodium cacodylate 20 mM, CaCl2 3 mM

B1: Development-specific protein S wild type, P02966 (protein)
chain: MANITVFYNEDFQGKQVDLPPGNYTRAQLAALGIENNTISSVKVPPGVKAILYQNDGFAGDQIEVVANAEELGPLNNNVSSIRVISVPVQPRARFFYKEQFDGKEVDLPPGQYTQAELERYGIDNNTISSVKPQGLAVVLFKNDNFSGDTLPVNSDAPTLGAMNNNTSSIRIS
unfolding enthalpy (calorimetric) (pH 1.5, glycine-HCl 20 mM, CaCl2 3 mM): 51.9 kcal/mol and 44.5 kcal/mol
unfolding enthalpy (calorimetric) (pH 1.5, glycine-HCl 20 mM): 48.8 kcal/mol and 42.8 kcal/mol
unfolding enthalpy (calorimetric) (pH 1.75, glycine-HCl 20 mM, CaCl2 3 mM): 50.9 kcal/mol and 46.9 kcal/mol
unfolding enthalpy (calorimetric) (pH 2, glycine-HCl 20 mM, CaCl2 3 mM): 58.6 kcal/mol and 49.2 kcal/mol and 50.2 kcal/mol
Tm (pH 2, glycine-HCl 20 mM): 47.9 °C
unfolding enthalpy (calorimetric) (pH 2, glycine-HCl 20 mM): 55.2 kcal/mol
unfolding enthalpy (calorimetric) (pH 2.25, glycine-HCl 20 mM, CaCl2 3 mM): 66 kcal/mol and 55.2 kcal/mol and 54.5 kcal/mol
Tm (pH 2.25, glycine-HCl 20 mM): 38.3 °C
unfolding enthalpy (calorimetric) (pH 2.25, glycine-HCl 20 mM): 65.7 kcal/mol
unfolding enthalpy (calorimetric) (pH 2.5, glycine-HCl 20 mM, CaCl2 3 mM): 77 kcal/mol and 59 kcal/mol and 60.5 kcal/mol
Tm [1]: 55 °C and 57.3 °C and 59 °C
unfolding enthalpy (calorimetric) [1]: 94.2 kcal/mol and 77.2 kcal/mol and 62.1 kcal/mol
Tm (pH 3, glycine-HCl 20 mM): 53.7 °C and 54.6 °C
unfolding enthalpy (calorimetric) (pH 3, glycine-HCl 20 mM): 89.2 kcal/mol and 69.5 kcal/mol
Tm [2]: 70.1 °C
unfolding enthalpy (calorimetric) [2]: 79.1 kcal/mol
Tm (pH 6, Sodium cacodylate 20 mM): 68.9 °C
unfolding enthalpy (calorimetric) (pH 6, Sodium cacodylate 20 mM): 67.9 kcal/mol
unfolding enthalpy (calorimetric) (pH 9, glycine-NaOH 20 mM): 83.7 kcal/mol and 66.4 kcal/mol and 65 kcal/mol
